Values joined by “and” are separate entries in the source; they are usually repeats but may differ in a detail not shown here. Identical values can stand only once.
Molecular target: S protein of infectious SARS-CoV-2 strain 2019 n-CoV/USA_WA1/2020 (SARS-CoV-2, UniProt P0DTC2 14-1273)
Assay: cell-based or functional assay

B1: murine/human chimeric mAb Ab-1 (2B04) (antibody, V domains shown)
VH: QVQLKQSGPGLVAPSQSLSITCTVSGFSLINYAISWVRQPPGKGLEWLGVIWTGGGTNYNSALKSRLSISKDNSKSQVFLKMNSLQTDDTARYYCARKDYYGRYYGMDYWGQGTSVTVSS
VL: QAVVTQESALTTSPGETVTLTCRSSTGAVTTSNYANWVQEKPDHLFTGLIGGTNNRAPGVPARFSGSLIGDKAALTITGAQTEDEAIYFCALWYNNHWVFGGGTKLTVL
IC50, focus reduction neutralization test (FRNT) on Vero E6 cells: 1.46 ng/mL
IC50, neutralization of infectious SARS-CoV-2: < 2 ng/mL and < 500 ng/mL

B2: 2H04 (antibody, V domains shown)
VH: EVQLQQSGAELVKPGASVKMSCKASGYTFTSYWITWVKQRPGQGLEWIGDIYPGSGSTKYNEKFRSEATLTVDTSSTTAYMQLSSLTSEDSAVYYCARWDFYGSRTFDYWGQGTTLTVSS
VL: DIVLTQSPAILSVSPGERVSFSCRASQNIGTIIHWYQQRTNGSPRLLIKYASESVSGIPSRFSGSGSGTDFTLSINSVESEDIADYYCQQSSSWPLTFGAGTKLELK
IC50, neutralization of infectious SARS-CoV-2: < 500 ng/mL

B3: Hu-Ab-1 (Hu-2B04) (antibody, V domains shown)
VH: EVQLQESGPGLVKPSETLSLTCTVSGFSLINYAISWVRQPAGKGLEWLGVIWTGGGTNYNAALKSRLSISKDNSKSQVSLKMNSVTAADTAVYYCARKDYYGRYYGMDYWGQGTTVTVSS
VL: QAVVTQEPSLTVSPGGTVTLTCRSSTGAVTTSNYANWVQEKPGQAFRGLIGGTNNRAPGVPARFSGSLLGDKAALTLSGAQPEDEAEYFCALWYNNHWVFGGGTKLTVLG
IC50, live virus neutralization assay: 1.65 ng/mL

Source: patent US20220017604A1 (WASHINGTON UNIVERSITY, published 2022)
